Experimental findings from paper PMC2873508 are described below.

In assay [1] the target is CD134 on MYA-1 cells (not stated (endogenous in MYA-1 cells)).
Assay [2] shares this target. This is another data set of the same source.
Assay [3] has as its target feline CD134 on MCC cells (feline).
For assay [4], the target named is Chimaeric GL8 (ABSN) Env with the V4-V5 region of variant B14 (feline immunodeficiency virus (FIV), strain GL8 | feline immunodeficiency virus (FIV), strain GL8, in vivo variant).
In assay [5] the target is FIV GL8 Env (molecular clone 414) (feline immunodeficiency virus (FIV), strain GL8).

Substance “FIV Env of A613 variant B14 (natural protein)” came in with a percent infection of MYA-1 cells by HIV(FIV) pseudotype with anti-CD134 antibody, relative to no antagonist (Fig. 7A) in assay [1] of 19.5 % infection. The substance further returned an inhibition of HIV(FIV) pseudotype infection of MYA-1 cells by anti-CD134 antibody 7D6 (series 0.4 to 50 μg/ml; reduced by 90% at 0.4 μg/ml) (% reduction of infection) in assay [2] of more than 99. Moreover, in assay [3], the ratio of luciferase counts (CPM) of HIV(FIV) pseudotype infection on MCC cells with feline CD134 divided by counts on MCC cells with the feCRD1 chimera (feline CRD1 x human CD134); dependency on CRD2 was determined as 10.

As for FIV B2542 Env (natural protein), the ratio of luciferase counts (CPM) of HIV(FIV) pseudotype infection on MCC cells with feline CD134 divided by counts on MCC cells with the feCRD1 chimera (feline CRD1 x human CD134); dependency on CRD2 in assay [3] stood at 5.

With soluble Fc-CD134 (Fc fusion), the percent infection of MYA-1 cells by HIV(FIV) pseudotype (Env with cell CD134) with sFc-CD134, relative to no antagonist (Fig. 7B) in assay [4] turned out to be 65.1 % infection; in assay [5], 18.4 % infection.

With “FIV Env of A613 variant B23 (natural protein)”, the ratio of luciferase counts (CPM) of HIV(FIV) pseudotype infection on MCC cells with feline CD134 divided by counts on MCC cells with the feCRD1 chimera (feline CRD1 x human CD134); dependency on CRD2 in assay [3] turned out to be 223.
